Reference: patent US20050171004A1, “Use of cardiotrophin-1 to promote wound healing and counteract overt fibrosis” (priority 2003, published 2005)

Key:
Type in all cases: cell-based, rat
[1] = tested on: cardiac fibroblasts; test: Western analysis of signaling pathways activated by CT-1 in cardiac fibroblasts; conditions: cardiac fibroblasts incubated with CT-1
Description: Fibroblasts were isolated from the hearts of 200-250 g adult male Sprague-Dawley rats as previously described (Hao et al., 2000, Am J Physiol Heart Circ Physiol 279: H3020-H3030). Briefly, hearts were subjected to Langendorff perfusion at 37° C. with Joklik's medium containing 0.1% collagenase (Worthington Biochemical Corporation, Lakewood, N.J.) for 20-25 minutes. Collagenase was neutralized by addition of an equal volume of DMEM/F12 medium containing 10% FBS and liberated cells were collected by centrifugation at 500×g for 5 minutes. Cells were resuspended in fresh DMEM/F12 containing 10% FBS and plated on 75 cm^2 culture flasks at 37° C. with 5% CO2 for 3 hours. Non adherent cells (myocytes) were removed by changing the culture media and adherent cells (mainly fibroblasts) were incubated in DMEM/F12 containing 10% FBS, 100 U/mL penicillin, 100 μg/mL streptomycin, and 100 μM ascorbate. Fibroblasts were used for experiments after the second passage and the purity of these cells was ≧95%, using routine phenotyping methods as previously described (Peterson et al., 1999, Cardiovasc Res 41: 575-585). […] Cells were rendered quiescent by incubation in serum-free medium for 24 hours then stimulated with CT-1 for specified times and lysed in RIPA buffer (150 mM NaCl, 1% Triton X-100, 0.5% deoxycholate, 0.1% SDS, 50 mM Tris) with 1× protease inhibitor cocktail (Sigma-Aldrich, Oakville, Ontario) and 10 mM NaF, 1 mM Na3VO4 and 1 mM EGTA.
Protein concentrations of tissue and cell lysates were determined by the BCA method (Smith et al., 1985, Anal Biochem 150: 76-85). Proteins were separated by 8-12% SDS-PAGE and transferred to PVDF membrane (Roche, Indianapolis, Ind.) for 1 hour at 300 mA for small proteins or for 2 hours at 500 mA for proteins greater than 100 kDa. Membranes were blocked with 5% non-fat skim milk in tris-buffered saline containing 0.2% Tween 20 (TBST). […] Band intensity was quantified using a CCD camera imaging densitometer (GS670, Bio-Rad Laboratories (Canada) Ltd. Mississauga, Ontario). […]

[2] = tested on: cardiac fibroblasts; test: 3H-thymidine incorporation (DNA synthesis) proliferation assay
Description: DNA synthesis was measured by uptake of ^3H-thymidine as previously described (Saward and Zahradka, 1997, Mol Cell Biochem 176: 53-59) with modification. Briefly, 2.5×10^4 cells (counted with a hemacytometer) in DMEM/F12 with 10% FBS were loaded into each well of 24-well culture plates, allowed to attach overnight and rendered quiescent in serum-free DMEM with 100 μM ascorbate for 24 hours. S-phase re-entry in response to CT-1 was measured in two ways: pulse labeling with ^3H-thymidine for 30 minutes every 6 hours, or labeling for the last 30 minutes of 6 or 12 hour incubation. DNA in cell lysate was precipitated with cold 20% trichloroacetic acid (TCA) and filtered through GF/A filters (Fisher). Beta emission from the dried filers was measured with Cytoscint scintillation fluid (ICN Pharmaceuticals, Costa Mesa, Calif.) and a scintillation counter (LS6500, Beckman Coulter, Fullerton, Calif.).

[3] = tested on: cardiac myofibroblasts; test: Estimation of membrane potential with DiBAC4(3) dye; conditions: superfusion with CT-1 for 4 minutes
Description: Myofibroblast membrane potential was estimated using voltage sensitive DiBAC4(3) dye (Molecular Probes, Eugene, Oreg.). […] First passage myofibroblasts were plated on glass coverslips, allowed to attach, then incubated with 1 μM DiBAC4(3) in control solution containing: NaCl (140 mM), KCl (5 mM), HEPES (10 mM), CaCl2 (2.0 mM), MgCl2 (1.4 mM) and glucose (10 mM) for 20 minutes. The cells were visualized at 400× on an inverted microscope (Nikon Canada). DiBAC4 (3) was excited at 470 nm wavelength and emitted light at 525 nm was digitized and stored (Photon Technology International, Lawrenceville, N.J.). Fluorescence intensity was normalized to maximum fluorescence observed throughout the experiment. To ensure fluorescence intensity changes in response to altered membrane potential were occurring as expected, the cells were superfused with Tyrode's solution containing 1 μM DiBAC4(3) and 1.5 mM KCl or 15 mM KCl. Under these control conditions, DiBAC4(3) fluorescence decreased or increased indicating hyperpolarization or depolarization, respectively. For CT-1 experiments, CT-1 was diluted in control solution containing 1 μM DiBAC4(3). After ensuring a stable fluorescence signal, the cells were superfused with the CT-1 containing solution for 4 minutes, followed by washout. Fluorescence was monitored for a total of 10 minutes.

[4] = tested on: cardiac fibroblasts; test: Protein synthesis assay (3H-leucine incorporation); conditions: CT-1 for 24 hours
Description: Protein synthesis was determined using the methods of Wolf and Neilson (Wolf and Neilson, 1990, Am J Physiol 259: 768-777). 2.5×10^4 cells (counted with a hemacytometer) were loaded into each well of 24-well plates, allowed to attach overnight, then rendered quiescent in serum free DMEM/F12 for 24 hours. Cells were stimulated with CT-1 for an additional 24 hours in the presence of 2 μCi/mL ^3H-leucine with or without inhibitors of signaling pathways. The culture media was aspirated, cells rinsed twice with phosphate buffered saline and proteins precipitated by two incubations with 10% TCA at room temperature. The precipitated protein was solubilized in 300 μl lysis buffer containing 0.5 M NaOH and 1% Triton X-100 at room temperature for 15 minutes. The lysate was transferred to scintillation vials, and beta emission was determined with 3 ml Ecolume scintillation fluid (ICN Pharmaceuticals) and a scintillation counter (LS6500, Beckman Coulter, Fullerton, Calif.).

[5] = tested on: cardiac fibroblasts; test: Cell counting (Coulter counter); conditions: CT-1 for 24 hours
Description: To determine absolute cell numbers after stimulation with CT-1, the total number of cells were counted. Equal numbers of cells were loaded into each well of 24 well plates and incubated with CT-1 for 24 hours. The cells were detached with trypsin, diluted in filtered phosphate buffered saline, and counted with Model ZM Coulter cell counter (Beckman Coulter, Fullerton, Calif.).

B1: cardiotrophin-1 (protein, UniProt Q16619 1-201, looked up)
Cardiotrophin-1: MSRREGSLEDPQTDSSVSLLPHLEAKIRQTHSLAHLLTKYAEQLLQEYVQLQGDPFGLPSFSPPRLPVAGLSAPAPSHAGLPVHERLRLDAAALAALPPLLDAVCRRQAELNPRAPRLLRRLEDAARQARALGAAVEALLAALGAANRGPRAEPPAATASAASATGVFPAKVLGLRVCGLYREWLSRTEGDLGQLLPGGSA
notes: gp130 signaling cytokine of the LIF or IL-6 superfamily; 201 amino acids as a mature protein, 21.5 kDa
**Q.** Which “phosphorylation of gp130, Jak1, Jak2, STAT3, STAT1” value [1] does the source give for B1 here?
**A.** resulted in phosphorylation

**Q.** What about the “phosphorylation of p42/44 MAPK, p38 MAPK, JNK and Src” value [1] of the same molecule?
**A.** observed phosphorylation

**Q.** And the “Phosphorylation of STAT5 or STAT6” value ([1]; data not shown)?
**A.** not observed

**Q.** And the “CT-1 dose of peak 3H thymidine incorporation (maximal DNA synthesis)” value ([2]; 6 or 12 hours incubation)?
**A.** 10 to 20 ng/mL

**Q.** And the “lowest CT-1 concentration with elevated incorporation of 3H thymidine” value ([2]; 6 or 12 hours incubation)?
**A.** 1 ng/mL

**Q.** What about the “pathway dependence of CT-1 induced cell proliferation (DNA synthesis)” value ([2]; pretreatment with inhibitors, CT-1 10 ng/mL for 12 hours) of the same molecule?
**A.** dependent on Jak, P13-K, MAPK, and Src kinases

**Q.** What about the “time to S-phase re-entry after addition of CT-1” value ([2]; quiescent cells, 10 ng/mL CT-1, 3H-thymidine pulse labeling) of the same molecule?
**A.** ≤ 6 h

**Q.** And the “cell membrane potential (DiBAC4(3) fluorescence)” value [3]?
**A.** pronounced hyperpolarization

**Q.** What about the “protein synthesis (3H-leucine incorporation)” value [4] of the same molecule?
**A.** dose-dependent increase in protein synthesis

**Q.** What about the total cell number [5] of the same molecule?
**A.** increase in total cell number
